The record followed here is patent US20200164085A1 (Merck Sharp & Dohme, published 2020).

In the assay the target is T1, human CD74 (human, UniProt P04233 1-296).
T1 sequence (looked up): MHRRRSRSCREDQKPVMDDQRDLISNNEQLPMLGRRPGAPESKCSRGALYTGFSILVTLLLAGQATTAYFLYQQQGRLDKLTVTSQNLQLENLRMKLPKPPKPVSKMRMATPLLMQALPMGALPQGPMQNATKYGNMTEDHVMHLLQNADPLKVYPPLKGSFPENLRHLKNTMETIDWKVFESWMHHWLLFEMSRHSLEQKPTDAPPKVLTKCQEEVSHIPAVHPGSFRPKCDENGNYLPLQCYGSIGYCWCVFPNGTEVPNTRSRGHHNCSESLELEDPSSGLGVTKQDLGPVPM
Kind of assay: cell-based or functional assay.

B1: ADC 12-5 (anti-hCD74 (LL1) conjugated to Linker 2-7) (antibody, human IgG1, kappa, V domains shown)
VH: QVQLQQSGSELKKPGASVKVSCKASGYTFTNYGVNWIKQAPGQGLQWMGWINPNTGEPTFDDDFKGRFAFSLDTSVSTAYLQISSLKADDTAVYFCSRSRGKNEAWFAYWGQGSLVTVSS
VL: DIQLTQSPLSLPVTLGQPASISCRSSQSLVHRNGNTYLHWFQQRPGQSPRLLIYTVSNRFSGVPDRFSGSGSGTDFTLKISRVEAEDVGVYFCSQSSHVPPTFGAGTRLEIKR
modifications: position 121 is para-azido phenylalanine (pAzF), conjugated to dexamethasone drug-linker 2-7
Consider B1, for which the “EC50, GILZ mRNA, HUT-78 cells” value was 1.32 µg/mL; the “EC50, GILZ mRNA, SUDHL-6 cells” value stood at 0.4 µg/mL; the “Emax, GILZ mRNA, HUT-78 cells” value stood at 4.13; the “Emax, GILZ mRNA, SUDHL-6 cells” value was found to be 3.4.

B2: ADC 12-7 (anti-hCD74 (LL1) conjugated to Linker 4-3) (antibody, human IgG1, kappa, V domains shown)
VH: QVQLQQSGSELKKPGASVKVSCKASGYTFTNYGVNWIKQAPGQGLQWMGWINPNTGEPTFDDDFKGRFAFSLDTSVSTAYLQISSLKADDTAVYFCSRSRGKNEAWFAYWGQGSLVTVSS
VL: DIQLTQSPLSLPVTLGQPASISCRSSQSLVHRNGNTYLHWFQQRPGQSPRLLIYTVSNRFSGVPDRFSGSGSGTDFTLKISRVEAEDVGVYFCSQSSHVPPTFGAGTRLEIKR
modifications: position 121 is para-azido phenylalanine (pAzF), conjugated to dexamethasone drug-linker 4-3
As for B2, the “EC50, GILZ mRNA, HUT-78 cells” value is above 30 µg/mL; the “EC50, GILZ mRNA, SUDHL-6 cells” value was 14.3 µg/mL; the “Emax, GILZ mRNA, HUT-78 cells” value worked out at 1.93; the “Emax, GILZ mRNA, SUDHL-6 cells” value worked out at 1.52.

B3: ADC 12-9 (anti-hCD74 (LL1) conjugated to Linker 6-2) (antibody, human IgG1, kappa, V domains shown)
VH: QVQLQQSGSELKKPGASVKVSCKASGYTFTNYGVNWIKQAPGQGLQWMGWINPNTGEPTFDDDFKGRFAFSLDTSVSTAYLQISSLKADDTAVYFCSRSRGKNEAWFAYWGQGSLVTVSS
VL: DIQLTQSPLSLPVTLGQPASISCRSSQSLVHRNGNTYLHWFQQRPGQSPRLLIYTVSNRFSGVPDRFSGSGSGTDFTLKISRVEAEDVGVYFCSQSSHVPPTFGAGTRLEIKR
modifications: position 121 is para-azido phenylalanine (pAzF), conjugated to dexamethasone drug-linker 6-2
As to B3, the “EC50, GILZ mRNA, HUT-78 cells” value is above 30 µg/mL; the “EC50, GILZ mRNA, SUDHL-6 cells” value was above 30 µg/mL; the “Emax, GILZ mRNA, HUT-78 cells” value came to 2.55; the “Emax, GILZ mRNA, SUDHL-6 cells” value turned out to be 6.48.

B4: ADC 12-4 (anti-hCD74 (LL1) conjugated to Linker 1-4) (antibody, human IgG1, kappa, V domains shown)
VH: QVQLQQSGSELKKPGASVKVSCKASGYTFTNYGVNWIKQAPGQGLQWMGWINPNTGEPTFDDDFKGRFAFSLDTSVSTAYLQISSLKADDTAVYFCSRSRGKNEAWFAYWGQGSLVTVSS
VL: DIQLTQSPLSLPVTLGQPASISCRSSQSLVHRNGNTYLHWFQQRPGQSPRLLIYTVSNRFSGVPDRFSGSGSGTDFTLKISRVEAEDVGVYFCSQSSHVPPTFGAGTRLEIKR
modifications: position 121 is para-azido phenylalanine (pAzF), conjugated to dexamethasone drug-linker 1-4
Regarding B4, the “EC50, GILZ mRNA, HUT-78 cells” value was determined as 1.08 µg/mL; the “EC50, GILZ mRNA, SUDHL-6 cells” value is 0.99 µg/mL; the “Emax, GILZ mRNA, HUT-78 cells” value came to 3.95; the “Emax, GILZ mRNA, SUDHL-6 cells” value came to 3.44.

B5: ADC 12-6 (anti-hCD74 (LL1) conjugated to Linker 3-4) (antibody, human IgG1, kappa, V domains shown)
VH: QVQLQQSGSELKKPGASVKVSCKASGYTFTNYGVNWIKQAPGQGLQWMGWINPNTGEPTFDDDFKGRFAFSLDTSVSTAYLQISSLKADDTAVYFCSRSRGKNEAWFAYWGQGSLVTVSS
VL: DIQLTQSPLSLPVTLGQPASISCRSSQSLVHRNGNTYLHWFQQRPGQSPRLLIYTVSNRFSGVPDRFSGSGSGTDFTLKISRVEAEDVGVYFCSQSSHVPPTFGAGTRLEIKR
modifications: position 121 is para-azido phenylalanine (pAzF), conjugated to dexamethasone drug-linker 3-4
Consider B5, for which the “EC50, GILZ mRNA, HUT-78 cells” value was determined as 1.87 µg/mL; the “EC50, GILZ mRNA, SUDHL-6 cells” value was 0.47 µg/mL; the “Emax, GILZ mRNA, HUT-78 cells” value was 4.61; the “Emax, GILZ mRNA, SUDHL-6 cells” value came to 3.33.

B6: ADC 12-10 (anti-hCD74 (LL1) conjugated to Linker 9-4) (antibody, human IgG1, kappa, V domains shown)
VH: QVQLQQSGSELKKPGASVKVSCKASGYTFTNYGVNWIKQAPGQGLQWMGWINPNTGEPTFDDDFKGRFAFSLDTSVSTAYLQISSLKADDTAVYFCSRSRGKNEAWFAYWGQGSLVTVSS
VL: DIQLTQSPLSLPVTLGQPASISCRSSQSLVHRNGNTYLHWFQQRPGQSPRLLIYTVSNRFSGVPDRFSGSGSGTDFTLKISRVEAEDVGVYFCSQSSHVPPTFGAGTRLEIKR
modifications: position 121 is para-azido phenylalanine (pAzF), conjugated to budesonide drug-linker 9-4
Turning to B6, the “EC50, GILZ mRNA, HUT-78 cells” value was determined as 0.2 µg/mL; the “EC50, GILZ mRNA, SUDHL-6 cells” value worked out at 0.21 µg/mL; the “Emax, GILZ mRNA, HUT-78 cells” value was determined as 6.47; the “Emax, GILZ mRNA, SUDHL-6 cells” value was determined as 5.89.
